As a reminder, the stoichiometry N is a count of units in the complex or per binding partner.

Data set [1] concerns the target Fluc-Ec2 (E. coli (virulence plasmid)) (UniProt Q6J5N4). The data set can be described thus: SEC-MALS; SEC with static light scattering, refractive index and UV detectors; Superdex-75 in 400 mM NaF, 10 mM MES pH 6.5, 5 mM DM (detergent micelles). (In gel filtration, larger molecules generally elute earlier.)
Data set [2] concerns the molecule itself. The experiment in a line: single-molecule TIRF photobleaching; Cy5-labeled protein reconstituted at very low density (0.15 µg/mg lipid) in liposomes adhered to glass; counting of bleaching steps.
Data set [3] deals with the molecule itself. The data set can be described thus: cross-linking; ~0.1 mg/ml purified protein in 20 mM MOPS pH 7.5, 100 mM NaCl, 10 mM NaF, 5 mM DM with 0.125% glutaraldehyde for 5-120 min; 15% SDS-PAGE.

Turning to “Fluc-Ec2 (from UniProt Q6J5N4 1-126) (natural protein)”, the stoichiometry N in data set [1] amounted to 2.

B1: Fluc-Bpe R29C labeled with Cy5-maleimide (natural protein)
chain: MLTYAPLNFIAIGIGATLGAWLRWVLGLCLNGAGWPWGTLTANLVGGYLIGVMVALIASHPEWPAWIRLAAVTGFLGGLTTFSTFSAETVDMLERGVYATAAAYAGASLAGSLAMTGLGLATVRLLLR
modifications: Cy5-maleimide on the unique cysteine R29C (labeling efficiency 72%)
notes: Fluc homologue Bpe from Bordatella pertussis (so in the source), NCBI NP_879990.1, naturally cysteine-free, with a single cysteine substitution; source: E. coli BL21-DE3, purified, labeled with Cy5-maleimide, reconstituted into liposomes at 0.15 µg/mg lipid
Regarding B1, the “stoichiometry N” value in data set [2] is 2.

B2: Fluc-Bpe R29K (natural protein)
chain: MLTYAPLNFIAIGIGATLGAWLRWVLGLKLNGAGWPWGTLTANLVGGYLIGVMVALIASHPEWPAWIRLAAVTGFLGGLTTFSTFSAETVDMLERGVYATAAAYAGASLAGSLAMTGLGLATVRLLLR
notes: Fluc homologue Bpe from Bordatella pertussis (so in the source), NCBI NP_879990.1, lysine-less, with a single lysine in loop 1
As for B2, the binding result in data set [3] is given as “binds”.

B3: Fluc-Bpe T3C labeled with Cy5-maleimide (natural protein)
chain: MLCYAPLNFIAIGIGATLGAWLRWVLGLRLNGAGWPWGTLTANLVGGYLIGVMVALIASHPEWPAWIRLAAVTGFLGGLTTFSTFSAETVDMLERGVYATAAAYAGASLAGSLAMTGLGLATVRLLLR
modifications: Cy5-maleimide on the unique cysteine T3C (labeling efficiency 62%)
notes: as for B1
B3: the binding result in data set [2] was “binds”.

B4: Fluc-Bpe R95K (natural protein)
chain: MLTYAPLNFIAIGIGATLGAWLRWVLGLRLNGAGWPWGTLTANLVGGYLIGVMVALIASHPEWPAWIRLAAVTGFLGGLTTFSTFSAETVDMLEKGVYATAAAYAGASLAGSLAMTGLGLATVRLLLR
notes: Fluc homologue Bpe from Bordatella pertussis (so in the source), NCBI NP_879990.1, lysine-less, with a single lysine in loop 3
As to B4, the binding result in data set [3] is “binds”.

These data come from article PMC3755343, “A family of fluoride-specific ion channels with dual-topology architecture” (eLife, 2013).
